Measured values reported in the Immune Epitope Database (IEDB).

Columns and labels:
[1] = target: HLA-A*02:01; assay: IEDB peptide-MHC binding, purified MHC/competitive/fluorescence; filed as Kd, often an IC50 or EC50 that approximates it; ≥ and ≤ were set here for values at or beyond the usual limits of such assays
[2] = target: HLA-A*26:01; assay: as above
[3] = target: HLA-A*69:01; assay: as above
[4] = target: HLA-B*15:01; assay: as above
[5] = target: HLA-B*15:17; assay: as above
[6] = target: HLA-B*18:01; assay: as above
[7] = target: HLA-B*27:03; assay: as above
[8] = target: HLA-B*39:01; assay: as above
[9] = target: HLA-B*46:01; assay: as above
[10] = target: HLA-B*51:01; assay: as above
[11] = target: HLA-B*57:01; assay: as above
[12] = target: HLA-A*02:12; assay: IEDB peptide-MHC binding, purified MHC/direct/fluorescence; filed as Kd, often an IC50 or EC50 that approximates it; ≥ and ≤ were set here for values at or beyond the usual limits of such assays
[13] = target: HLA-A*02:19; assay: as above
[14] = target: HLA-A*03:01; assay: IEDB peptide-MHC binding, purified MHC/competitive/fluorescence; filed as Kd, often an IC50 or EC50 that approximates it; ≥ and ≤ were set here for values at or beyond the usual limits of such assays
[15] = target: HLA-A*02:01; assay: IEDB peptide-MHC binding, purified MHC/competitive/radioactivity; filed as Kd, often an IC50 or EC50 that approximates it; ≥ and ≤ were set here for values at or beyond the usual limits of such assays
[16] = target: HLA-A*02:06; assay: as above
[17] = target: HLA-A*02:17; assay: as above
[18] = target: HLA-B*08:01; assay: as above
[19] = target: HLA-A*11:01; assay: IEDB peptide-MHC binding, purified MHC/competitive/fluorescence; ≥ and ≤ were set here for values at or beyond the usual limits of such assays
[20] = target: HLA-A*03:01; assay: IEDB peptide-MHC binding, purified MHC/competitive/radioactivity; filed as Kd, often an IC50 or EC50 that approximates it; ≥ and ≤ were set here for values at or beyond the usual limits of such assays; conditions: source organism: Vaccinia virus WR
[21] = target: HLA-A*31:01; assay: as above; conditions: source organism: Vaccinia virus WR
[22] = target: HLA-A*33:01; assay: as above; conditions: source organism: Vaccinia virus WR
[23] = target: HLA-A*68:01; assay: as above; conditions: source organism: Vaccinia virus WR
[24] = target: HLA-A*02:01; assay: IEDB peptide-MHC binding, purified MHC/competitive/fluorescence; ≥ and ≤ were set here for values at or beyond the usual limits of such assays
[25] = target: HLA-A*02:03; assay: IEDB peptide-MHC binding, purified MHC/competitive/radioactivity; filed as Kd, often an IC50 or EC50 that approximates it; ≥ and ≤ were set here for values at or beyond the usual limits of such assays
[26] = target: HLA-B*51:01; assay: as above; conditions: source organism: Dengue virus 2 Peru/IQT2913/1996
[27] = target: HLA-A*24:02; assay: IEDB peptide-MHC binding, purified MHC/competitive/fluorescence; ≥ and ≤ were set here for values at or beyond the usual limits of such assays; conditions: source organism: Variola virus
[28] = target: HLA-A*30:01; assay: IEDB peptide-MHC binding, purified MHC/competitive/radioactivity; filed as Kd, often an IC50 or EC50 that approximates it; ≥ and ≤ were set here for values at or beyond the usual limits of such assays; conditions: source organism: Dengue virus 4 Philippines/H241/1956
[29] = target: HLA-A*68:02; assay: as above; conditions: source organism: Dengue virus 1 Brazil/97-11/1997
[30] = target: HLA-B*27:05; assay: IEDB peptide-MHC binding, purified MHC/direct/fluorescence; filed as Kd, often an IC50 or EC50 that approximates it; ≥ and ≤ were set here for values at or beyond the usual limits of such assays; conditions: source organism: Reston ebolavirus - Reston
[31] = target: HLA-B*15:01; assay: IEDB peptide-MHC binding, purified MHC/competitive/fluorescence; ≥ and ≤ were set here for values at or beyond the usual limits of such assays; conditions: source organism: Vaccinia virus
[32] = target: HLA-B*18:01; assay: IEDB peptide-MHC binding, purified MHC/direct/fluorescence; filed as Kd, often an IC50 or EC50 that approximates it; ≥ and ≤ were set here for values at or beyond the usual limits of such assays; conditions: source organism: Influenza A virus (A/camel/Mongolia/1982(H1N1))
[33] = target: HLA-B*40:01; assay: as above; conditions: source organism: Influenza A virus (A/camel/Mongolia/1982(H1N1))
[34] = target: HLA-B*44:02; assay: as above; conditions: source organism: Influenza A virus (A/camel/Mongolia/1982(H1N1))
[35] = target: HLA-A*02:01; assay: as above
[36] = target: HLA-A*69:01; assay: as above
[37] = target: HLA-A*02:11; assay: as above; conditions: source organism: Sapporo rat virus
[38] = target: HLA-B*15:01; assay: IEDB peptide-MHC binding, purified MHC/competitive/radioactivity; filed as Kd, often an IC50 or EC50 that approximates it; ≥ and ≤ were set here for values at or beyond the usual limits of such assays; conditions: source organism: Dengue virus 3 China/80-2/1980
[39] = source organism: Orthohantavirus negraense
[40] = source organism: Neembucu hantavirus
[41] = source organism: Dengue virus 2 Jamaica/1409/1983
[42] = source organism: Zaire ebolavirus
[43] = source organism: Dengue virus 3 China/80-2/1980
[44] = source organism: Sudan ebolavirus
[45] = source organism: Dengue virus 2 Thailand/NGS-C/1944
[46] = source organism: Dengue virus 4 Philippines/H241/1956
[47] = source organism: Dengue virus 1 Singapore/S275/1990
[48] = source organism: Dengue virus 1 Brazil/97-11/1997
[49] = source organism: Reston ebolavirus - Reston (1989)
[50] = source organism: Vaccinia virus
[51] = source organism: Dengue virus 4 Dominica/814669/1981
[52] = source organism: Ebola virus - Mayinga, Zaire, 1976
[53] = source organism: Sapporo rat virus

YSDNEMLTH showed a Kd ([1]; source organism: Homo sapiens) of no less than 20000 nM, a Kd ([2]; source organism: Homo sapiens) of no less than 20000 nM and a Kd ([3]; source organism: Homo sapiens) of no less than 20000 nM. For the same sequence, the Kd ([4]; source organism: Homo sapiens) was no less than 20000 nM, the Kd ([5]; source organism: Homo sapiens) was no less than 20000 nM and the Kd ([6]; source organism: Homo sapiens) was no less than 20000 nM. It also gave a Kd ([7]; source organism: Homo sapiens) of no less than 20000 nM, a Kd ([8]; source organism: Homo sapiens) of no less than 20000 nM and a Kd ([9]; source organism: Homo sapiens) of no less than 20000 nM. The Kd ([10]; source organism: Homo sapiens) was no less than 20000 nM and the Kd ([11]; source organism: Homo sapiens) was no less than 20000 nM.

In the case of ILYMLSWGK, the Kd [12, 39] is reported as no less than 20000 nM, the Kd [13, 39] is reported as no less than 20000 nM and the Kd [14, 40] is reported as 155 nM. It also gave a Kd [2, 40] of no less than 20000 nM, a Kd [3, 40] of no less than 20000 nM and a Kd [4, 40] of no less than 20000 nM. For the same sequence, the Kd [5, 40] was no less than 20000 nM, the Kd [6, 40] was no less than 20000 nM and the Kd [7, 40] was no less than 20000 nM. It also gave a Kd [8, 40] of no less than 20000 nM, a Kd [9, 40] of no less than 20000 nM and a Kd [10, 40] of no less than 20000 nM. It also gave a Kd [11, 40] of no less than 20000 nM.

WLVHRQWFL gave a Kd [15, 41] of 2.4 nM, a Kd [16, 41] of 156 nM and a Kd [17, 41] of 61.8 nM. For the same sequence, the Kd [18, 41] was 8.69 nM.

Sequence ETITEKTFK has an IC50 ([19]; source organism: Vaccinia virus Copenhagen) of 5570 nM, a Kd [20] of 3060 nM and a Kd [21] of 823 nM. It also gave a Kd [22] of 2.6 nM and a Kd [23] of 12.1 nM.

Work on TLQVSDVDK yielded an IC50 [19, 42] of 41900 nM.

Sequence SLCLMMMLPA has a Kd [15, 43] of 65.7 nM and a Kd [17, 43] of 11700 nM.

For SMPLGVVTN, the IC50 [24, 44] was no less than 115000 nM and the IC50 [19, 44] was no less than 163000 nM.

In the case of FLFLMSGRGI, the Kd [15, 45] is reported as 4.21 nM, the Kd ([25]; source organism: Dengue virus 2 Peru/IQT2913/1996) is reported as 6.33 nM and the Kd [17, 45] is reported as 726 nM. The Kd [26] was 7910 nM.

Sequence MMMLPATLA has a Kd [15, 43] of 27.6 nM, a Kd [25, 43] of 28.6 nM and a Kd [17, 43] of 106 nM.

Work on NCYNLEIKK yielded an IC50 [19, 44] of no less than 72400 nM.

For DIIIAVARK, the IC50 ([19]; source organism: Variola virus) was no less than 177000 nM and the IC50 [27] was 61600 nM.

Work on KMKKKTWLV yielded a Kd [15, 46] of 66.6 nM, a Kd [25, 46] of 31 nM and a Kd [17, 46] of 65 nM. It also gave a Kd [28] of 17.2 nM and a Kd [18, 46] of 93.5 nM.

For TLTAAVLMLV, the Kd [15, 47] was 3.97 nM, the Kd [25, 48] was 3.45 nM and the Kd [17, 47] was 1060 nM. It also gave a Kd [29] of 1.58 nM.

For KIEAPLLLH, the Kd ([14]; source organism: Escherichia coli str. K-12 substr. MG1655) was 116 nM.

Work on LGLDDQEKK yielded an IC50 [19, 42] of 30700 nM.

Sequence VLMMRTTWA has a Kd [15, 41] of 34.6 nM, a Kd [25, 41] of 13.5 nM and a Kd [17, 41] of 15200 nM. For the same sequence, the Kd [18, 41] was 12.8 nM.

For GRYNLVPPK, the Kd [30] was 97.6 nM, the Kd [1, 49] was no less than 20000 nM and the Kd [2, 49] was no less than 20000 nM. The Kd [3, 49] was no less than 20000 nM, the Kd [4, 49] was no less than 20000 nM and the Kd [5, 49] was no less than 20000 nM. For the same sequence, the Kd [6, 49] was no less than 20000 nM, the Kd [8, 49] was no less than 20000 nM and the Kd [9, 49] was no less than 20000 nM. The Kd [10, 49] was no less than 20000 nM and the Kd [11, 49] was no less than 20000 nM.

For ALPVYLMTL, the Kd [15, 46] was 10.9 nM and the Kd [17, 46] was 1.77 nM.

With RLCRFRKSK the Kd ([14]; source organism: Yersinia pestis Nepal516) was 121 nM.

With KSNIEETKF the IC50 [31] was no less than 481000 nM.

With GLLCVMASSV the Kd [15, 47] was 11.4 nM, the Kd [25, 47] was 26 nM and the Kd [17, 47] was 151 nM.

GVVVSTNRL gave an IC50 [24, 50] of 9530 nM and an IC50 [19, 50] of no less than 80000 nM.

For MEYDAVATT, the Kd [32] was no more than 1 nM, the Kd [33] was 706 nM and the Kd [34] was no less than 20000 nM.

For TLATGPILTL, the Kd [15, 51] was 65.4 nM, the Kd [25, 51] was 12.1 nM and the Kd [17, 51] was 687 nM.

LLMLLPTAL was tested, and the Kd [15, 47] was 7.54 nM, the Kd [25, 48] was 31 nM and the Kd [17, 47] was 11.6 nM. For the same sequence, the Kd [18, 48] was 6.42 nM.

With LLADGLAKA the Kd [35, 52] was 25.7 nM, the Kd ([12]; source organism: Ravn virus - Ravn, Kenya, 1987) was 4 nM and the Kd [36, 52] was 848 nM.

For SLTECPTFL, the Kd ([35]; source organism: Amur virus) was no more than 1 nM, the Kd [37] was no more than 1 nM and the Kd [12, 53] was 5 nM. For the same sequence, the Kd [13, 53] was 41 nM and the Kd ([36]; source organism: Amur virus) was no less than 20000 nM.

VILAGPIPV was tested, and the Kd [15, 46] was 6.74 nM, the Kd [16, 46] was 132 nM and the Kd [17, 46] was 995 nM.

In the case of LMMMLPATL, the Kd [25, 43] is reported as 6.62 nM, the Kd [17, 43] is reported as 227 nM and the Kd [18, 43] is reported as 18.7 nM. The Kd [38] was 87.1 nM.

Sequence ILAKAIFKL has a Kd [15, 46] of 14 nM and a Kd [17, 46] of 37.9 nM.

For MLLILCTSQI, the Kd [15, 47] was 75.8 nM and the Kd [17, 47] was 182 nM.

For VLVGVVTLYL, the Kd [15, 41] was 62 nM and the Kd [17, 41] was 1570 nM.
